# Experimental data taken from PMC2973826, “Translation Elongation Factor 1A Facilitates the Assembly of the Tombusvirus Replicase and Stimulates Minus-Strand Synthesis” (PLoS Pathogens, 2010).
# T1: MBP-tagged TCV p88C (lacking the p28-overlapping domain from the N-terminus) (Turnip crinkle virus, UniProt P17460 252-775)
# T1 sequence: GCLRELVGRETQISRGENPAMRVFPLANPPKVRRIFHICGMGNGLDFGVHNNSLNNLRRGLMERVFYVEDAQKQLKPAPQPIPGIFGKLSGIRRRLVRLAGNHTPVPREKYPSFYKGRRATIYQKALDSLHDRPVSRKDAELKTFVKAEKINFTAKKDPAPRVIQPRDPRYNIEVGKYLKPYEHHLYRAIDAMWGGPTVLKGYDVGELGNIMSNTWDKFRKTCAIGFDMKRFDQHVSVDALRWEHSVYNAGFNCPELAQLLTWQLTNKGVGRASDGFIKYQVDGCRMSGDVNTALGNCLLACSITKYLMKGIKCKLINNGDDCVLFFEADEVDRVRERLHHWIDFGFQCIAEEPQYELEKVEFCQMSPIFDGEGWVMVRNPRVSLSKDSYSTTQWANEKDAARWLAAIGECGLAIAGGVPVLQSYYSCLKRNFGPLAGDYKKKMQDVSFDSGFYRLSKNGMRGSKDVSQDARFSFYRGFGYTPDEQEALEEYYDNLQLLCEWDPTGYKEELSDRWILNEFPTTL
# Biological target: T1, MBP-tagged TCV p88C (lacking the …)
# Test: cell-based or functional assay
binder,measurement,value
"eukaryotic translation elongation factor 1A (eEF1A), wild type (natural protein, S. cerevisiae, UniProt P02994 1-458, looked up) MGKEKSHINVVVIGHVDSGKSTTTGHLIYKCGGIDKRTIEKFEKEAAELGKGSFKYAWVLDKLKAERERGITIDIALWKFETPKYQVTVIDAPGHRDFIKNMITGTSQADCAILIIAGGVGEFEAGISKDGQTREHALLAFTLGVRQLIVAVNKMDSVKWDESRFQEIVKETSNFIKKVGYNPKTVPFVPISGWNGDNMIEATTNAPWYKGWEKETKAGVVKGKTLLEAIDAIEQPSRPTDKPLRLPLQDVYKIGGIGTVPVGRVETGVIKPGMVVTFAPAGVTTEVKSVEMHHEQLEQGVPGDNVGFNVKNVSVKEIRRGNVCGDAKNDPPKGCASFNATVIVLNHPGQISAGYSPVLDCHTAHIACRFDELLEKNDRRSGKKLEDHPKFLKSGDAALVKFVPSKPMCVEAFSEYPPLGRFAVRDMRQTVAVGVIKSVDKTEKAAKVTKAAQKAAKK",in vitro (−)RNA synthesis by the TCV RdRp on a TBSV (+)RNA template after pre-incubation of purified wt eEF1A with the TCV RdRp,~5 fold
